Data taken from patent US6262024.

Molecular target: N-methyl-D-aspartate (NMDA) receptor (rat)

## neuron regulatory factor (NRF) from rat
  anterior thalamic neuron survival over controls: 700%
